Here are results for two substances from article PMC2192707.

The data set addresses T1, calnexin (UniProt P35564).
T1 sequence: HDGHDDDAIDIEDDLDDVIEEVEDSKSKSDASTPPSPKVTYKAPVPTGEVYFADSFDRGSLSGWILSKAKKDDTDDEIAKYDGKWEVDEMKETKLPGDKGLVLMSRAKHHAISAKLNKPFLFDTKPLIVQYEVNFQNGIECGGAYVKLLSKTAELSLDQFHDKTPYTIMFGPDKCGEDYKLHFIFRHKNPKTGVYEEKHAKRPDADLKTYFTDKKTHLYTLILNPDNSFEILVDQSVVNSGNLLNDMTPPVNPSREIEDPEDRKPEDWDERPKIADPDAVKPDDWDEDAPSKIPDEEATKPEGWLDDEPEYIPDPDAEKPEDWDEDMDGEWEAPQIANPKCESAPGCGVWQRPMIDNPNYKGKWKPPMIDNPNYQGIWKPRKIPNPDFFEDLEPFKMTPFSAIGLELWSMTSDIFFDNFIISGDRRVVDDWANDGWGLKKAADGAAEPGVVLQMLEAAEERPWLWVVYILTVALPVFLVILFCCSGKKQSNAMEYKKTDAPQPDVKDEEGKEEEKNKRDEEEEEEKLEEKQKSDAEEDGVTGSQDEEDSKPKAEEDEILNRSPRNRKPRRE
The conditions noted are these: co-IP.

Regarding H-2Kb class I heavy chain, the “percent of heterodimers associated with calnexin” value is roughly 45% ofK b heterodimers.

Consider “H-2Db class I heavy chain (endogenous in EL4)”, for which the “percent of heterodimers associated with calnexin” value is on record as 85% ofD b heterodimers.
